Positions count from the first letter of the chain named. Several values for one entry are separate records, joined by “and”; a condition that tells them apart may be missing. Identical values can stand only once. Like-named read-outs stand apart in the source and are kept apart here.
T1: Human BMP1 CD+CUB1 truncated antigen (human, UniProt P13497 121-434, limits assumed)
T1 construct: domain: CD+CUB1
T1 sequence (looked up): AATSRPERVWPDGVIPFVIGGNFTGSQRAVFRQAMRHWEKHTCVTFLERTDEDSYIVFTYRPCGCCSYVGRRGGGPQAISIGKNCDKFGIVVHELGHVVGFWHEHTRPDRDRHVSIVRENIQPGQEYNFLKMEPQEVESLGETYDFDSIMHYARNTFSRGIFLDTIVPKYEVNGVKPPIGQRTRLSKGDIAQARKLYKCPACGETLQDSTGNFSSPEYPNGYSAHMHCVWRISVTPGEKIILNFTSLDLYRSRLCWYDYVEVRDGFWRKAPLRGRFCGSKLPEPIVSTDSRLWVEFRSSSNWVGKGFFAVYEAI

T2: Human TLL2 CD+CUB1 truncated antigen (human, UniProt Q9Y6L7 150-463, limits assumed)
T2 construct: domain: CD+CUB1
T2 sequence (looked up): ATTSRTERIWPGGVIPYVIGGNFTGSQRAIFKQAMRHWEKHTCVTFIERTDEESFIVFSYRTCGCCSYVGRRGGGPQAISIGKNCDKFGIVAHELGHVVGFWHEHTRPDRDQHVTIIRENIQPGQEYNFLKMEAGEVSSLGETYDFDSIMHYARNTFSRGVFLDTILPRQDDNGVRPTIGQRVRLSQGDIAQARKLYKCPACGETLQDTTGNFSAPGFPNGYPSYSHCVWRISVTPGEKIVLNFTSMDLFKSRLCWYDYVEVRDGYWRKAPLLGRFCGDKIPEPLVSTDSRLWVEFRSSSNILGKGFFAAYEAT

T3: Mouse BMP1 CD+CUB1 truncated antigen (mouse, UniProt P98063 126-439, limits assumed)
T3 construct: domain: CD+CUB1
T3 sequence (looked up): T1 sequence (looked up) with V99I, P134V, P178S, L247M, S279G

T4: Mouse BMP1-3: 126-707 (mouse, UniProt P98063 126-707)
T4 sequence (looked up): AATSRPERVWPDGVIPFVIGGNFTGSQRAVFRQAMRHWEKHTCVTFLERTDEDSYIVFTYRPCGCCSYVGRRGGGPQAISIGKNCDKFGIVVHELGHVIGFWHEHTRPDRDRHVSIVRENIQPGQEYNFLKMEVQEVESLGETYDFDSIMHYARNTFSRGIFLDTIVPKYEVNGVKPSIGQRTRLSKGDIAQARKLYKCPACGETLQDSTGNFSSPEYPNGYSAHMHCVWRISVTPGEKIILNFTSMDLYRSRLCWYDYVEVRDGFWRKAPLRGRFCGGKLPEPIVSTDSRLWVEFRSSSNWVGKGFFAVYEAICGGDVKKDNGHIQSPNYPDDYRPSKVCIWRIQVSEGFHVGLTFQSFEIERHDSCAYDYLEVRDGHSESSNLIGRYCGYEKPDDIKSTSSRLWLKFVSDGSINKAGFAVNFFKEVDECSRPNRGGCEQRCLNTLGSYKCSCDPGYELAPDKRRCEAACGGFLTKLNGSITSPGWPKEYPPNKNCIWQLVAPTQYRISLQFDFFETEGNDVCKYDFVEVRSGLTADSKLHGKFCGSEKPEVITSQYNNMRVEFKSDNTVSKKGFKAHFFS

T5: Human BMP1-1 (human, UniProt P13497-2 121-730, limits assumed)
T5 sequence (looked up): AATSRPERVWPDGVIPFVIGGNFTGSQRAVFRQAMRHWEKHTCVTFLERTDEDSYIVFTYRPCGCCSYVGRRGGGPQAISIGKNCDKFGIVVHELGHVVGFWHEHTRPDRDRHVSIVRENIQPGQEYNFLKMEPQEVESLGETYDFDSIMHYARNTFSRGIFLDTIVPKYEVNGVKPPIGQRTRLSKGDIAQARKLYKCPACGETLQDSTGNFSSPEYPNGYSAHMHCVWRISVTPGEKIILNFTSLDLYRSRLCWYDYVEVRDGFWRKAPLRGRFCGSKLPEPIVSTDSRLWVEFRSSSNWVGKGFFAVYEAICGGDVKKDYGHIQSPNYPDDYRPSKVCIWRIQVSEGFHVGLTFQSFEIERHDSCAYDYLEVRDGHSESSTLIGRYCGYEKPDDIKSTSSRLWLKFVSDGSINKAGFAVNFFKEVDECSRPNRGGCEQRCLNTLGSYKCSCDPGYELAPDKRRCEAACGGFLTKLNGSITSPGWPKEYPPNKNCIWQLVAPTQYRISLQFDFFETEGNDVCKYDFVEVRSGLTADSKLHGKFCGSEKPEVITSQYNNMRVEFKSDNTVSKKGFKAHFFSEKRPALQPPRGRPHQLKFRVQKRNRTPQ

T6: Mouse TLL1 (mouse, UniProt Q62381 148-1013, limits assumed)
T6 sequence (looked up): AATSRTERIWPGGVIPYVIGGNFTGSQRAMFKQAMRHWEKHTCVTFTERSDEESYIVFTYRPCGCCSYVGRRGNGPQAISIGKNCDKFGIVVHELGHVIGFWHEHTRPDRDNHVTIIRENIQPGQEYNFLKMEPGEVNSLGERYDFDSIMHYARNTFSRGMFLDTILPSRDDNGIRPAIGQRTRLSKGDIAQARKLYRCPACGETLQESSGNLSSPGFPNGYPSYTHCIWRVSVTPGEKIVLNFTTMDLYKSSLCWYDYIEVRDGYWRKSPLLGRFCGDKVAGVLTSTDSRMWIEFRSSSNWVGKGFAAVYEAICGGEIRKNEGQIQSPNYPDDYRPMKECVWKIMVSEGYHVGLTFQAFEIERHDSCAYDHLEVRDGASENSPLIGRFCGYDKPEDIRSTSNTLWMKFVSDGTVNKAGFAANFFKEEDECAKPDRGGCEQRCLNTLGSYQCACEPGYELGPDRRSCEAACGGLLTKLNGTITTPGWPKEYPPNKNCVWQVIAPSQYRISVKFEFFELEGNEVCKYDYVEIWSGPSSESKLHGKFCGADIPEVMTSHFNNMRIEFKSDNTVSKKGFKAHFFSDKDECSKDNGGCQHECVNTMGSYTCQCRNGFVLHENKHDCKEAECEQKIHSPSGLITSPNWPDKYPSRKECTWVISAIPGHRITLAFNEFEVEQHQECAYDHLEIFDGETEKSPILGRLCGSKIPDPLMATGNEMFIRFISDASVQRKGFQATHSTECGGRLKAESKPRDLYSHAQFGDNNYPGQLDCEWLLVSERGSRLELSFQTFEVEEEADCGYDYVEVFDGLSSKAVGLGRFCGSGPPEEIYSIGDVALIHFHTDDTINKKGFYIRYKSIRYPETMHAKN

T7: Cyno TLL1 (cyno, UniProt A0A1D5QYV0 148-1013 (rhesus entry))
T7 sequence: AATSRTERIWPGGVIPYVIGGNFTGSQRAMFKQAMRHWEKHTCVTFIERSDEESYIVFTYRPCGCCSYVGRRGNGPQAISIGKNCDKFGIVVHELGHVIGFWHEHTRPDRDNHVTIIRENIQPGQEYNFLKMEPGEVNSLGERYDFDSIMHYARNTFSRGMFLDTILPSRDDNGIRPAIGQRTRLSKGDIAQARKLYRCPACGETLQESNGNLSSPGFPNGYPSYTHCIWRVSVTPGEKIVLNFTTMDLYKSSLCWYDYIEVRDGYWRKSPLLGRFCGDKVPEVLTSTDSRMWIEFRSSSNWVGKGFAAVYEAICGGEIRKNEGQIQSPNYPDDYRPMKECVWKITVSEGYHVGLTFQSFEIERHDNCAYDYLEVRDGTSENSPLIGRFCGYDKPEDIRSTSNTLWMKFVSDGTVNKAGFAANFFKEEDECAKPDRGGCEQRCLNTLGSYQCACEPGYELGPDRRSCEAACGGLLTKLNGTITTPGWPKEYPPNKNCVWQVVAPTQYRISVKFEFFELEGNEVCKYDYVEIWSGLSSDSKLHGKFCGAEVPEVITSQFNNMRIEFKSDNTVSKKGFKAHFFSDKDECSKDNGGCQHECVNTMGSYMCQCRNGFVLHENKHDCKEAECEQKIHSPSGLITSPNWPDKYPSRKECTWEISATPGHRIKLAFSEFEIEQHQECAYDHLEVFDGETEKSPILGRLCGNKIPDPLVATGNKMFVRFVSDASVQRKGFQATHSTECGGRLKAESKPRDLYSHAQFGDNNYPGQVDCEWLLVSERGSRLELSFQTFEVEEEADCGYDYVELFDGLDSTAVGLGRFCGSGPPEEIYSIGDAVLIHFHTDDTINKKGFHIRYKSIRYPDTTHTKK

B1: 13Y039-4B06-4334 human variable region on mouse IgG2a LAGA Fc, mouse cKappa (Compound A) (antibody)
heavy: QVQLVQSGAEVKKPGASVKVSCKASGYTFLGYYMSWVRQAPGQGLEWMGWINPLSGETNYAQKFQGRVTMTRDTSISTAYMELSRLRSDDTAVYYCARDTGELDGMNWYFDLWGRGTLVTVSSAKTTAPSVYPLAPVCGDTTGSSVTLGCLVKGYFPEPVTLTWNSGSLSSGVHTFPAVLQSDLYTLSSSVTVTSSTWPSQSITCNVAHPASSTKVDKKIEPRGPTIKPCPPCKCPAPNLAGAPSVFIFPPKIKDVLMISLSPIVTCVVVDVSEDDPDVQISWFVNNVEVHTAQTQTHREDYNSTLRVVSALPIQHQDWMSGKEFKCKVNNKDLPAPIERTISKPKGSVRAPQVYVLPPPEEEMTKKQVTLTCMVTDFMPEDIYVEWTNNGKTELNYKNTEPVLDSDGSYFMYSKLRVEKKNWVERNSYSCSVVHEGLHNHHTTKSFSRTPGK
light: EIVLTQSPATLSLSPGERATLSCRASQSVSSYLAWYQQKPGQAPRLLIYDASNRATGIPARFSGSGSGTDFTLTISSLEPEDFAVYYCQQSDSWPPTFGGGTKVEIKRADAAPTVSIFPPSSEQLTSGGASVVCFLNNFYPKDINVKWKIDGSERQNGVLNSWTDQDSKDSTYSMSSTLTLTKDEYERHNSYTCEATHKTSTSPIVKSFNRNEC
notes: Reverse chimera; the printed variable regions are those of 4B06-4334; also called 13Y039-4B06-4334 reverse chimera mouse IgG2a LAGA; 13Y039-4B06-4334, mIgG2a LAGA
B2: 13Y039-8F02-2949 (antibody, human IgG1, kappa, V domains shown)
VH: QVQLVQSGAEVKKPGSSVKVSCKASGGTFSEWAISWVRQAPGQGLEWMGAIIPKFGTAEYAQKFQGRVTITADESTSTAYMELSSLRSEDTAVYYCARGAKYYYAEDYMDVWGKGTTVTVSS
VL: DIQMTQSPSSVSASVGDRVTITCRASQGISSWLAWYQQKPGKAPKLLIYAASSLQSGVPSRFSGSGSGTDFTLTISSLQPEDFATYYCQQALSLPYTFGGGTKVEIKR
notes: Fully human IgG1 LAGA, kappa; HEK expressed

What was measured:
[1] = molecular target: T1, Human BMP1 CD+CUB1 truncated antigen; test: SPR, captured mAb, enzyme dilution buffer
[2] = molecular target: T1, Human BMP1 CD+CUB1 truncated antigen; test: SPR, captured mAb, HBS-EP
[3] = molecular target: T2, Human TLL2 CD+CUB1 truncated antigen; test: SPR, captured mAb, HBS-EP
Method: (§1) Both antibodies 13Y039-4B06-4334 and 13Y039-3E07-2944 and the reverse chimeric antibodies were evaluated for binding to human TLL2 CD+CUB1 and mouse BMP1 CD+CUB1 truncated antigens by SPR on a BIACORE T200. Protein A/G was immobilised to a CM5 sensor chip via amine coupling and the antibodies were captured to the protein A/G surface. The antigens were passed over the captured antibody at various concentrations. The measured affinities to human TLL2 CD+CUB1 are shown in Table 2 and the measured affinities to mouse BMP1 CD+CUB1 are shown in Table 3.

[4] = molecular target: T3, Mouse BMP1 CD+CUB1 truncated antigen; test: SPR, captured mAb, HBS-EP
Method: as §1

[5] = molecular target: T2, Human TLL2 CD+CUB1 truncated antigen; test: SPR, captured mAb, HBS-EP; remark: listed apart in the source
Method: as §1

[6] = molecular target: T4, Mouse BMP1-3: 126-707; test: cell-based or functional assay
[7] = molecular target: T5, Human BMP1-1; test: cell-based or functional assay
[8] = molecular target: T5, Human BMP1-1; test: cell-based or functional assay; remark: listed apart in the source
[9] = molecular target: T1, Human BMP1 CD+CUB1 truncated antigen; test: SPR, mAb captured on protein A, HBS-EP
Method: The 16 lead panel antibodies expressed in HEK cells were evaluated for binding to a truncated version of human BMP containing the catalytic domain and truncated domain (Human BMP1 CD+CUB1 truncated antigen) by SPR using BIACORE T200. HBS-EP+ buffer was used and the experiment run at 25° C. Protein A was immobilised to a CM5 sensor chip via amine coupling. The lead panel antibodies were captured onto protein A surface. Human BMP1 CD+CUB1 was then passed over the captured antibodies at various concentrations.

[10] = molecular target: T4, Mouse BMP1-3: 126-707; test: cell-based or functional assay; remark: listed apart in the source
[11] = molecular target: T6, Mouse TLL1; test: cell-based or functional assay
[12] = molecular target: T7, Cyno TLL1; test: cell-based or functional assay
[13] = molecular target: T5, Human BMP1-1; test: cell-based or functional assay; remark: listed apart in the source

Binder	Kd [1]	Kd [2]	Kd [3]	Kd [4]	Kd [5]	pKi, app, FRET enzyme activity, Mouse BMP1 [6]	pKi, app, FRET enzyme activity, Human BMP1 [7]	IC50 (read off the curve) [8]	Kd [9]	IC50 (read off the curve) [10]	IC50, FRET enzyme activity, 800 pM biotinylated mTLL-1 [11]	IC50, FRET enzyme activity, 750 pM biotinylated cynoTLL-1 [12]	IC50, FRET enzyme activity, 62.5 pM huBMP1 [13]
B1	0.04 nM	2.33 nM	3.55 nM	0.82 nM and 1.98 nM	3.54 nM	11.4	12.3						
B2								~0.5 nM	1.6 nM	~0.06 nM	0.56 nM	20 pM	60 pM

Reference: patent US20230279089A1 (GlaxoSmithKline, published 2023)
